T1: GST-Arl1QL (Arf-like protein 1, Gln71 to Leu, putative active GTP-bound form) (human, UniProt P40616 1-181, Gln71 to Leu (Arl1QL))
T1 construct: Arf-like protein 1 (Arl1), human; fragment encoding Arl1QL subcloned into pGEX4T via EcoRI; Loaded with GTPγS on the resin; also called active form of Arl1; source: E. coli BL21, immobilized on glutathione-sepharose resin, exchanged for GTPγS
T1 sequence (looked up): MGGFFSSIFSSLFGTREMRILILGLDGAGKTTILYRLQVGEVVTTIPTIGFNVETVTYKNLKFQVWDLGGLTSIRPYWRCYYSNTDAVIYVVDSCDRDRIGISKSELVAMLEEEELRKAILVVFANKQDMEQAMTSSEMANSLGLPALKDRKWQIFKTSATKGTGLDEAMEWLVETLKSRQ

B1: arfaptin-1b (Arf-interacting protein 1b, long isoform), endogenous (natural protein, human (endogenous in HeLa), UniProt P53367 1-373, looked up)
chain: MAQESPKNSAAEIPVTSNGEVDDSREHSFNRDLKHSLPSGLGLSETQITSHGFDNTKEGVIEAGAFQGSPAPPLPSVMSPSRVAASRLAQQGSDLIVPAGGQRTQTKSGPVILADEIKNPAMEKLELVRKWSLNTYKCTRQIISEKLGRGSRTVDLELEAQIDILRDNKKKYENILKLAQTLSTQLFQMVHTQRQLGDAFADLSLKSLELHEEFGYNADTQKLLAKNGETLLGAINFFIASVNTLVNKTIEDTLMTVKQYESARIEYDAYRTDLEELNLGPRDANTLPKIEQSQHLFQAHKEKYDKMRNDVSVKLKFLEENKVKVLHNQLVLFHNAIAAYFAGNQKQLEQTLKQFHIKLKTPGVDAPSWLEEQ
notes: arfaptin-1b, long isoform of arfaptin-1 with an insertion (residues 69-100) absent from arfaptin-1a; source: endogenous, HeLa lysate
B2: arfaptin-1a (Arf-interacting protein 1, short isoform), endogenous (natural protein, human (endogenous in HeLa), UniProt P53367-2 1-341, looked up)
chain: MAQESPKNSAAEIPVTSNGEVDDSREHSFNRDLKHSLPSGLGLSETQITSHGFDNTKEGVIEAGAFQGGQRTQTKSGPVILADEIKNPAMEKLELVRKWSLNTYKCTRQIISEKLGRGSRTVDLELEAQIDILRDNKKKYENILKLAQTLSTQLFQMVHTQRQLGDAFADLSLKSLELHEEFGYNADTQKLLAKNGETLLGAINFFIASVNTLVNKTIEDTLMTVKQYESARIEYDAYRTDLEELNLGPRDANTLPKIEQSQHLFQAHKEKYDKMRNDVSVKLKFLEENKVKVLHNQLVLFHNAIAAYFAGNQKQLEQTLKQFHIKLKTPGVDAPSWLEEQ
notes: arfaptin-1a, short isoform of arfaptin-1; lacks the insertion (residues 69-100) of arfaptin-1b; also called arfaptin-1a (short form); source: endogenous, HeLa lysate

Target: T1, GST-Arl1QL (Arf-like protein 1, Gln71 …)
Assay: pull-down; GST fusion proteins (5 μg) immobilized on glutathione-sepharose, incubated with GTPγS (QL) or GDP (TN); HeLa lysates (2.5 mg), endogenous proteins; 12.5% SDS-PAGE and western blotting
Settings: one partner purified

Binder	fold change of the level bound, against Arf1QL
B1	1.84 fold
B2	1.84 fold

Source: publication PMC4366199, “Arfaptin-1 Negatively Regulates Arl1-Mediated Retrograde Transport” (PLoS ONE, 2015)
